# Laboratory results as given in a protein production outcome set (Wang et al. 2014).
# Test: label from the status in PepcDB records
row,Sequence,protein production
1,MKKVILLGATSNISKYLIPRLLAKNDVELTLFARQATRRLHQYAAQSQVTLTNGNWNNSADLTAAIAGQDIVYLATGHFTTANQNVVDAMKQNGVERLIVAGGLGIYDEVAGKFGIWNAQMMGDYTEIKRAAAVIDNSGLNYTFLRMAWLYNNDQHTDYKVIPQGMPFKDTQVTRQAVADLITEIIHNPQLYQRSSIGVAEPNTAWNKPGFY,failed
2,MKKVLILFAHPRMEKSRANTTLLKHIPSAENITFHDLYELYPDFNIDVEAEKQLLLLHDIIIWQHPFYWYSCPPLMKQWIDMVLEFGWAYGPGGTALKDKIIFNAITTGGANATYNAGGHNRFTMQEYLRPFEQTAHLCKMIYFPPFLVQGSHRLTDEELQRFSQQYVILLTKMSQGNFEEAHMKDITFLNEICVKPR,failed
3,MKKWWMLTICIVFIVAAVVPVRAAAASHPLFANVIVVFQQQVDEQAVKTLHGNVTKRFEVIPAVAATLPVTAVELLRRWPGVDYVQQDTTVAIDGQITDWGVEKVKAPVMHTHGVTGKGVKIAILDTGVDLKHPDLRVVGGACVLSYCPNSYQDDNGHGTHVAGIIAAKDNDIGTVGVAPNASIYAVKVLDRYGEGNVSDILSGIEWAMKHRVDIINLSLAAPEDAPALKAAIRKAYESGILVVAAAGNNGYANGTGDTVEYPAKYDSAIAVSAVNKENVRLPYSATGPAIEVAAPGEGVYSTVPVALDGDGRRDGYTHMSGTSMAAPFVTGVLALYKQQYPERTNIELRQMLRDRALDLGTPGRDPWYGYGLVRAVSNQPPELKVKLLSVKKGEVAFSVTLSGSAVKGYRVYRNGKQIETLQTAGTYTDYVVKGTYQYEFASIRNDGAESALTAPITVNVPDPYYKDVSASAWYMPEIAYLSSRGIVSGYNNGTIQPYNTITRAEVAVMLGRALHLDATKRATVFRDVASSDFASGYIQSAYERGLINGYPDGTFRPQQPITRAETAIILSRAYPLPGGSSMMFKDVTARVTGHEAIAKLAAARIAEGYPDGTFRPYQFVKRLEFFVFTARADNERFR,failed
4,MKKYFITIMILLFGTLILAACQNSDEADNYEPPKVDLKDQIPIILIHGSGGNASSLDKMADQLMNEYRSSNEALTMTVNSEGKIKFEGKLTKDAKRPIIKFGFEQNQATPDDWSKWLKIAMEDLKSRYGFTQMDGVGHSNGGLALTYYAEDYAGDKTVPTLRKLVAIGSPFNDLDPNDNGMDLSFKKLPNSTPQMDYFIKNQTEVSPDLEVLAIAGELSEDNPTDGIVPTISSLATRLFMPGSAKAYIEDIQVGEDAVHQTLHETPKSIEKTYWFLEKFKTDETVIQLDYK,failed
5,MKKYLAGLAAVSVAGGAAPTLDSVQAAPEQNTQKAATTVQASASNNSSYTVNTSVLHVRAGSSTSHDIISRVYNGQSLNVIGEENGWFKININGKTGFVSGEFVSKSGAANNNVSTGGNNKVTADVLRVRTAPNTSSSVSGRVYAGQTLNVIGQENGWVKINHNGQVGYVSGEFVSGVSSNGGSSNNNTNNNNQEVKPASGNYTVNVSSLRVRTGPSTSHTTVGSVKKGQVVQVVGEVQDWFKINYAGQTAYISKDYVTKGGSNENVTEGNKQEQNNNGTIQTGGSYVVNATSLRVRTGPAAYHSVIGGVLNGTTLNVVGSENGWFKVNYQGKTGFVSSEFVKFVKGGTTTPEQPKQPEKPNQGTIGDYYINASALNVRSGEGTNYRIIGALPQGQKVQVISENSGWSKINYNGQTGYIGTRYLSKTPVGGAVDNKPNNNQNNNQNNNNNNNTGNNSGDSSSVLAYAKSMQGVPYVWGGTSANGVDCSGYIYHVFKKFGHNISRQSVAGYWSSLPKTSSPQPGDLIYFQNTYKSGPSHMGIYLGGGSFIQAGDKGVAIASLSNSYWKSHFLGYTKAP,failed
6,MKLAEALILRADLQKELMSLKNRINQNLLVQEGEKPSENPYTLYDEILLKVSELEGLILKINKTNSNYITSNNESISDLIVKRDMLGKKISILKEIAEEATVKVNRYSQTEIKIFSAMKVDQLQREINKYSKEYRELDTKLQGLNWTIDLME,failed
7,MKLAIIIPVYNAEETIKRAILSVDTSVPYEIICINDGSTDQTQHVLTELQQKHPHIKVIHQSNQGAARSRNVGLEAMSEDVDAFLFLDADDEFLPSRIDLMVNAFNKNKETDVVIGQMARDVNGEWQVISTHQSMVKDAIVTLDRKPDILQSIGPGAKLFSSKYAGLRFDEDVVFCEEHTFIVKAFSKARDIQLIPNIVYGYNEREGSVTAQRADTFLPYMSDALKVRQRVMELLLLLDEKIYYSYRMDNLIVSYLIQAHLKKNNKITQSLLESVIEYMKAMQHTHYSGEAMFRIVRAVEQSATHWTKPLYLQWKKALSEVGIGRPGLIRFKLQVIPKKISFSGKESLKRIFKK,failed
8,MKLALFDLDHTLLNTDSDHSWGEFLVNEGLVDPVHHRQMNDKFYEDYKAGQLDPIAYNEFVFEFLTQNTPEVLTDLHALFMQKVIRPQMRPKGFDGIKKHQNLGHDIVGITATSDFITAPIFRAFGITEIIATNAEVQDGKYTGKVAGLPCYQKGKLARLDQWLAGRSVEESWAYSDSINDRFLLEYATHAIAVNPDDRLEKLAIDQGWTIEDWSI,failed
9,MKLDLARKRPSLLARLWLRLGALLGRTLLLLLVIGLLGWALSSAWFAWHHRGPVAVQEQVPADEAARTQDIIQTAVRIVDQHREGTRYLRDAHAKAHGCVKAQVQVLNDLSPPLRQGVFATPGQTWQAVVRLSNGNAYPQFDSIRDARGMAIKLLDVPGQQLMASESQRREQDFVMFNHPNFFVSDVAEYQQNIAAQADGKKVGAFFPGWDPRTWQVRHLFIALATLSPAPASPTQTTYYSVSPYKFGNANAKFRVMPDPESCPAYSLPAQNQDLPNFLRSALTQQLSTDRVGACFVLQVQRQDPNRFMPIEDTSIEWKESDAPFETVARVTLPAQDFDTPAQNLACDNQSFNPWFGLEAHRPIGGINRLRKAVYEAVSDYRHSRNAEQ,failed
10,MKLENQSETTANIQLNAPELVEANIAEVTSITIEKFLGSFTSVTRLLLNLSPLKNFHKDGLVSGKWNEPKDVPECLLSQLETFVWRRLDWGREEEKEIATYILKNGRRLKKETFTTNPIESEGLNKLKERLKVLNGLDGVQAPLFRKDGVVVGKWNQPKNVPQCLLSHLETFVWTRYRWEREEEKEEATYILKNARLLSKATFSTNIIDLKEFHWFKK,failed
11,MKLFKRISFILIVLYILIVPVQHVSAHAYLENSNPADQSHIKTAPEKVTLVFNEEIEADFPLIEVKDSSGKRVETGKTSVSKKNNHMVEASLPAELKADVYSVSWRVVSADGHAVTGIISFKLGDTKATFQESEVPSSGADLQISSIQKAILYIGFSLFIGVLVFGLGLYPRKEQISEKISGRLKKVTWIALALLGVALFMQLFVQTSITTGVSISESFGPSKLAAFLTTKTGYIWISEFIVWLLLAIFTIMMFFKNKQWSWFALLTESALIGYLIFAKAQNGHAAASADKIVSITADMLHMIAASVWVGGILVLLFVLPKTGKAREIWSRFAIVAIIAVASILVSGLLMAVMNIGQMSNLFTTNYGKILLFKIGLFLLMALLGLGHYIYLKLKNKKLPFKTILIELIIGTIILIVASVLTNVQTPPPPAPKAFDETIAAKGENAKINLRVEPATVGQNQFIITFTSADGATKTDFEQVTITTKSTKTDEKATFQAKLANENQYFAEGLYINQTGKWEITVHGLTKDFTDINQTFTTNITQ,failed
12,MKLGFIGFGEAASAIASGLRQAGAIDMAAYDAASAESWRPRAEELGVSCKASVAEVAGECDVIFSLVTAQAALEVAQQAGPHLCEGALYADFTSCSPAVKRAIGDVISRHRPSAQYAAVAVMSAVKPHGHRVPLVVDGDGARRFQAAFTLYGCRIEVLDGEVGGAALLKMCRSAVLKGLEALFLEALAAAEKMGLADRVLASLDASFPEHHLRDLALYLVERNLEHADRRAHELGEVAATLCSVGVEPLVAEAGYRRLTRVAQVRAALKQRPGDVRAWLRSLANAEDA,not failed
13,MKLGKAQSLEDVAGLVGACAVTILAVIIISALYVGREVFVPVALAILLSFVLARPVNFLQSLRVPRAIAAISTVLFAFAVIFALGSLIATQLSRLADDLPQYQSTIQSKITSLRGVTGGSTTLERAEGMLQNLSKELNKPKNAPAPSLSNPPTSSSRPVTPVPVEVLQPDPGTLANLRSLIAPLISPLATTGIIVIFVIFILLQREDLRNRLIRLAGTRDLQRTTAALDDAASRLSRLFLNQLLINSGFGVLIGTGLWIIGVPSPALWGILAAVLRFVPYIGSIISAAFPLTLAVAVDPGWSMLVWTAILFFVIEPAIAHVVEPMVYGRSTGLSPVAVVISATFWTALWGPIGLVLATPLTVCLVVLGRHVERLAFLDVMFGDRPALSPPEIFYQRMLAGDPAEAAEKAEQFLKERSLSSYYDDVALKGLQLAQADLDRDALDAVRLTRIKETVQEFTEDLTDEIDQAPDGDEATTDAEAAAAVEVTPVDHADDDIAVLKPADLKPGWQGAAPVMCIGGRSQLDEAAALMLAHLCRVHGIGARVEPSSALSTKNIFGLDVSNVALICLSYLEASNTTHIRYAVRRLRRKAPHAKIIVALWSAETPQLADTNESAQADATVLTLRDAVKYCVEEAIIEPPPQTIEMPVISEAV,failed
14,MKLGYSLSKSNAKNFKFYINGSAMGYKNIIINGAKSWNASPYLNTVSKGRDANPHFIISSSTIDRGATVAVCETWAYKGSKLVAKNEITTFKAFRSLSVGDKTETIAHEFGHGLGLGHVKTKNAIMLDVGFTKKIKPQRDDLNGIKAIYKLEHHHHHH,failed
15,MKLHLEIWRQAGPNSEGHFEPIDVNDAVPQMSVLELLDHVNTGLIEEGKEPFVFASDCREGICGTCGLLVNGRPHGLDKNKPSCQQRLDHVPDGSTLKIEPLRSAAYPVVKDLLVDRSALDRVLEKGGFVSINAGTAPDADTLHQNHESAELALDH,failed
16,MKLIAAGLTLIFLGFILLFLGVVLQVQTPQTTTSSSPQFAGLVLLGPIPIAFGNVPPSVLSNLIIVGVVFTIIMLIIYLIMFIIGRKTTRAPF,failed
17,MKLIGITGMPGSGKSAITKLAEKYKIVVVSMGDVVRYETLKQGMPLNPENVGNTAVKLREIYGKEAIAVPCLNYVNEKYNNEDFVIIEGIRSIYEVNYIKKHAELDIIAIHSSPKTRFERLSGRNREDDSNDWNTFVERDERELNFSIGRVISLADYMVVNEGNYMDFVNDLENTFKKIINVN,not failed
18,MKLIIAIVQDKDSNRLSSQFIEANVRATKLSTTGGFLRSGNTTFMIGIDDDRVDEVLAMIKETSHAREQFMTPPVNLDVTMDGAAAYPVEVQVGGATVFVLPIEQFHQF,failed
19,MKLIVAIVRPEKLNEVLEALFQAEVRGLTLSRVQGHGGETERVETYRGTTVKMELHEKVRLEIGVSEPFVKPTVEAILKAARTGEVGDGKIFVLPVEKVYRIRTGEEDEAAVTPVQ,not failed
20,MKLKHKRDDKMRFDIKKVLELAEKDFETAWRETRALIKDKHIDNKYPRLKPVYGKPHPVMETIERLRQAYLRMGFEEMINPVIVDEMEIYKQFGPEAMAVLDRCFYLAGLPRPDVGLGNEKVEIIKNLGIDIDEEKKERLREVLHLYKKGAIDGDDLVFEIAKALNVSNEMGLKVLETAFPEFKDLKPESTTLTLRSHMTSGWFITLSSLIKKRKLPLKLFSIDRCFRREQREDRSHLMSYHSASCVVVGEDVSVDDGKVVAEGLLAQFGFTKFKFKPDEKKSKYYTPETQTEVYAYHPKLGEWIEVATFGVYSPIALAKYNIDVPVMNLGLGVERLAMIIYGYEDVRAMVYPQFYEYRLSDRDIAGMIRVDKVPILDEFYNFANELIDICIANKDKESPCSVEVKREFNFNGERRVIKVEIFENEPNKKLLGPSVLNEVYVYDGNIYGIPPTFEGVKEQYIPILKKAKEEGVSTNIRYIDGIIYKLVAKIEEALVSNVDEFKFRVPIVRSLSDINLKIDELALKQIMGENKVIDVRGPVFLNAKVEIK,not failed
